Measured values: US20250297009A1 (BIOTHEUS, published 2025)

Columns and labels:
[1] = target: T1, human PD-1 (Uniprot: Q15116) on cells (human, UniProt Q15116 25-288); test: flow cytometry on activated human primary T cells, fluorescent secondary antibody
T1 construct: whole, on cells; The cell type is named under assay or readout; also called CHO-huPD-1 cells; CHO cells overexpressing human PD-1

[2] = target: T2, Human PD-1-his protein (human PD-1 extracellular domain with his tag) (human, UniProt Q15116 25-170); test: BLI (ForteBio), antibody loaded on AHQ sensor, 100 nM PD-1-his in solution, monovalent, 1:1 model
T2 construct: also called PD-1-his antigen; not shown: his tag
T2 sequence (Q15116 25-170): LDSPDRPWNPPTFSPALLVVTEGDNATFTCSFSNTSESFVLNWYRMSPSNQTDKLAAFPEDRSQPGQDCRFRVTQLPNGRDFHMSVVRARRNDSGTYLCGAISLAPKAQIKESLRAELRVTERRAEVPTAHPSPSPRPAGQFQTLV
Method: (§1) The binding dissociation constant (KD) values of the antibody obtained in Example 1 binding to human and cynomolgus monkey PD-1 were determined by biofilm optical interference technology (ForteBio). Fortebio affinity determination was carried out according to the existing method (Este, P et al. High throughput solution-based measurement of antibody-antigen affinity and epitope binning. Mabs, 2013.5(2): p. 270-8), and the extracellular amino acid sequences of human and cynomolgus monkey PD-1 were as set forth in SEQ ID NO:20 and 21, respectively.
(§2) The sensor loaded with antibody was exposed to 100 nM PD-1-his antigen until the plateau phase, and then the sensor was transferred to the assay buffer for at least 2 minutes for dissociation rate measurement. The kinetic analysis was performed using a 1:1 binding model.

[3] = target: T3, Cynomolgus monkey PD-1-his protein (cynomolgus monkey PD-1 extracellular domain with his tag) (cynomolgus monkey, UniProt Q15116 25-165 (human entry)); test: as above
T3 construct: also called Cyno PD-1-his; not shown: his tag
T3 chain: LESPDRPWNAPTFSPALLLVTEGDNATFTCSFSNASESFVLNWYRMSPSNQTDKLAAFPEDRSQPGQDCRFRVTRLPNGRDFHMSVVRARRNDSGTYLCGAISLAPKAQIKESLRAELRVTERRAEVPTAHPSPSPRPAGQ
Method: as §1, §2

[4] = target: T4, cynomolgus monkey PD-1 (Uniprot: BOLAJ3 as printed) on CHO-S cells (cynomolgus monkey); test: flow cytometry on CHO cells overexpressing cynomolgus monkey PD-1 according to legend paragraph 157 and Example 11 (the title on the sheet prints CHO-huPD-1), fluorescent secondary antibody
T4 construct: whole, on cells; also called CHO-cynoPD-1 cells; CHO cells overexpressing cynomolgus monkey PD-1

[5] = target: T1, human PD-1 (Uniprot: Q15116) on cells; test: flow cytometry, competition with bio-human PD-L1-Fc (0.5 µg/mL) on CHO-huPD-1 cells
[6] = target: T4, cynomolgus monkey PD-1 (Uniprot: BOLAJ3 …); test: flow cytometry on CHO-S cells overexpressing cynomolgus monkey PD-1
Source text: (§3) By transfecting human PD-1 (Uniprot: Q15116), cynomolgus monkey PD-1 (Uniprot: BOLAJ3) cDNA pCHO1.0 vector (purchased from Invitrogen) into CHO-S cellsand following with pressure screening, CHO-S cells overexpressing human PD-1 (CHO-huPD-1 cells) and CHO-S cells overexpressing cynomolgus monkey PD-1 (CHO-cynoPD-1 cells) were produced. The overexpressed cells after expansion culture were adjusted to the appropriate cell density and added to a 96-well flow plate, centrifuged and then added with gradiently diluted samples, and incubated at 4° C. for 30 minutes. Washing was performed twice with PBS, fluorescent secondary antibody correspondingly diluted to the appropriate concentration was added, incubated at 4° C. for 30 minutes, and washed twice with PBS. The cells were resuspended in PBS, and detected on a CytoFlex flow cytometer, and the corresponding MFI was calculated. Graphpad software was used for graphical analysis to obtain EC₅₀ values.

[7] = target: T1, human PD-1 (Uniprot: Q15116) on cells; test: flow cytometry on CHO-S cells overexpressing human PD-1
Source text: as §3

[8] = target: T1, human PD-1 (Uniprot: Q15116) on cells; test: flow cytometry on CHO cells overexpressing human PD-1, fluorescent secondary antibody
[9] = target: T1, human PD-1 (Uniprot: Q15116) on cells; test: flow cytometry blocking assay on CHO cells overexpressing human PD-1; blocked ligand: bio-human PD-L1-Fc, SA-PE detection

T1 sequence (Q15116 25-288, one chain of several): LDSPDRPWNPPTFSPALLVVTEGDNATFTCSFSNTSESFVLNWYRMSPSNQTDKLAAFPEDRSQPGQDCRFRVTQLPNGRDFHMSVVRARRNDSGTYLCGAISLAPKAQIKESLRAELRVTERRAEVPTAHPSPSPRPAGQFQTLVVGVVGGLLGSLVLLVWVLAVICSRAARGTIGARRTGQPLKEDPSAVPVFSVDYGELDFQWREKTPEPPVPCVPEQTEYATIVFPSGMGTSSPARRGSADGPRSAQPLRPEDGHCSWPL

EC50 (read off the curve) [1]: ~1 nM
Kd [2]: 0.453 nM
Kd [3]: 0.201 nM
EC50 (read off the curve) [4]: ~6 nM
IC50 [5]: 3.74 nM
EC50 [6]: 4.32 nM
EC50 [7]: 3.79 nM
EC50 (read off the curve) [8]: ~7 nM
IC50 (read off the curve) [9]: ~7 nM
B1: anti-PD-1 antibody ADI-54872 (antibody, human IgG1, kappa, L234A L235A, V domains shown)
VH: QVQLVQSGAEVKKPGASVKVSCKASGYTFTEYYIYWVRQAPGQGLEWIGGINPSNGGTNFNEKFKPRVTMTVDTSTSTAYMELSSLRSEDTAVYYCTVRDFRFDKGFKYWGQGTLVTVSS
VL: EIVLTQSPATLSLSPGERATLSCRASKSVSTSGLNYVHWYQRKPGQAPRLLIYLGSYLDSGVPARFSGSGSGTDFTLTISSLEPEDFAVYYCQQSWELPLTFGGGTKVEIKR
notes: Full-length IgG (human IgG1 LALA constant region), expressed in HEK293 and purified on Protein A
